Reference: patent publication US20210107998A1 (Boehringer Ingelheim, published 2021)

B1: Compound E (bispecific antibody, human IgG1, kappa, L234A L235A)
chain 1: SSELTQDPAVSVALGQTVRVTCQGDSLRSYYASWYQQKPGQAPVLVIYGKNNRPSGIPDRFSGSSSGNTASLTITGAQAEDEADYYCSSRDSSGNHWVFGGGTELTVLGGGSGGGGQVQLVQSGAEVKKPGSSVKVSCKASGYTFTDQTIHWMRQAPGQGLEWIGYIYPRDDSPKYNENFKGKVTITADKSTSTAYMELSSLRSEDTAVYYCAIPDRSGYAWFIYWGQGTLVTVSSLGGGSGASTKGPSVFPLAPSSKSTSGGTAALGCLVKDYFPEPVTVSWNSGALTSGVHTFPAVLQSSGLYSLSSVVTVPSSSLGTQTYICNVNHKPSNTKVDKRVEPKSCDKTHTCPPCPAPEAAGGPSVFLFPPKPKDTLYITREPEVTCVVVDVSHEDPEVKFNWYVDGVEVHNAKTKPREEQYNSTYRVVSVLTVLHQDWLNGKEYKCKVSNKALPAPIEKTISKAKGQPREPQVYTLPPSREEMTKNQVSLTCLVKGFYPSDIAVEWESNGQPENNYKTTPPVLDSDGSFFLYSKLTVDKSRWQQGNVFSCSVMHEALHNHYTQKSLSLSPG
chain 2: DIQMTQSPSSLSASVGDRVTITCKASRDVAIAVAWYQQKPGKVPKLLIYWASTRHTGVPSRFSGSGSRTDFTLTISSLQPEDVADYFCHQYSSYPFTFGSGTKLEIKGGGSGGGGQVQLQQSGAEVKKPGSSVRVSCKASGGTFNNNAINWVRQAPGQGLEWMGGIIPMFGTAKYSQNFQGRVAITADESTGTASMELSSLRSEDTAVYYCARSRDLLLFPHHALSPWGRGTMVTVSSLGGGSGRTVAAPSVFIFPPSDEQLKSGTASVVCLLNNFYPREAKVQWKVDNALQSGNSQESVTEQDSKDSTYSLSSTLTLSKADYEKHKVYACEVTHQGLSSPVTKSFNRGEC
B2: Compound C (bispecific antibody, human IgG1, kappa, L234A L235A)
chain 1: DIQMTQSPSSLSASVGDRVTITCKASRDVAIAVAWYQQKPGKVPKLLIYWASTRHTGVPSRFSGSGSRTDFTLTISSLQPEDVADYFCHQYSSYPFTFGSGTKLEIKGGGSGGGGQVQLVQSGAEVKKPGASVKVSCKASGYSFSTFFIHWVRQRPGQGLEWIGRIDPNSGATKYNEKFESKVTLTRDTSISTAYMELSRLRSDDTAVYYCARGEDLLIRTDALDYWGQGTSVTVSSLGGGSGASTKGPSVFPLAPSSKSTSGGTAALGCLVKDYFPEPVTVSWNSGALTSGVHTFPAVLQSSGLYSLSSVVTVPSSSLGTQTYICNVNHKPSNTKVDKRVEPKSCDKTHTCPPCPAPEAAGGPSVFLFPPKPKDTLYITREPEVTCVVVDVSHEDPEVKFNWYVDGVEVHNAKTKPREEQYNSTYRVVSVLTVLHQDWLNGKEYKCKVSNKALPAPIEKTISKAKGQPREPQVYTLPPSREEMTKNQVSLTCLVKGFYPSDIAVEWESNGQPENNYKTTPPVLDSDGSFFLYSKLTVDKSRWQQGNVFSCSVMHEALHNHYTQKSLSLSPG
chain 2: DIQMTQSPSSLSASVGDRVSITCKASQNAGIDVAWFQQKPGKAPKLLIYSKSNRYTGVPSRFSGSGSGTDFTLTISSLQPEDFADYYCLQYRSYPRTFGGGTKLEIKGGGSGGGGQVQLVQSGAEVKKPGSSVKVSCKASGYTFTDQTIHWMRQAPGQGLEWIGYIYPRDDSPKYNENFKGKVTITADKSTSTAYMELSSLRSEDTAVYYCAIPDRSGYAWFIYWGQGTLVTVSSLGGGSGRTVAAPSVFIFPPSDEQLKSGTASVVCLLNNFYPREAKVQWKVDNALQSGNSQESVTEQDSKDSTYSLSSTLTLSKADYEKHKVYACEVTHQGLSSPVTKSFNRGEC
notes: Tetravalent format
B3: Compound F (bispecific antibody, human IgG4 S228P, kappa)
chain 1: DIQMTQSPSSLSASVGDRVTITCKASRDVAIAVAWYQQKPGKVPKLLIYWASTRHTGVPSRFSGSGSRTDFTLTISSLQPEDVADYFCHQYSSYPFTFGSGTKLEIKGGGSGGGGQVQLQQSGAEVKKPGSSVRVSCKASGGTFNNNAINWVRQAPGQGLEWMGGIIPMFGTAKYSQNFQGRVAITADESTGTASMELSSLRSEDTAVYYCARSRDLLLFPHHALSPWGRGTMVTVSSLGGGSGASTKGPSVFPLAPCSRSTSESTAALGCLVKDYFPEPVTVSWNSGALTSGVHTFPAVLQSSGLYSLSSVVTVPSSSLGTKTYTCNVDHKPSNTKVDKRVESKYGPPCPPCPAPEFLGGPSVFLFPPKPKDTLYITREPEVTCVVVDVSQEDPEVQFNWYVDGVEVHNAKTKPREEQFNSTYRVVSVLTVLHQDWLNGKEYKCKVSNKGLPSSIEKTISKAKGQPREPQVYTLPPSQEEMTKNQVSLTCLVKGFYPSDIAVEWESNGQPENNYKTTPPVLDSDGSFFLYSRLTVDKSRWQEGNVFSCSVMHEALHNHYTQKSLSLSLG
chain 2: SSELTQDPAVSVALGQTVRVTCQGDSLRSYYASWYQQKPGQAPVLVIYGKNNRPSGIPDRFSGSSSGNTASLTITGAQAEDEADYYCSSRDSSGNHWVFGGGTELTVLGGGSGGGGQVQLVQSGAEVKKPGSSVKVSCKASGYTFTDQTIHWMRQAPGQGLEWIGYIYPRDDSPKYNENFKGKVTITADKSTSTAYMELSSLRSEDTAVYYCAIPDRSGYAWFIYWGQGTLVTVSSLGGGSGRTVAAPSVFIFPPSDEQLKSGTASVVCLLNNFYPREAKVQWKVDNALQSGNSQESVTEQDSKDSTYSLSSTLTLSKADYEKHKVYACEVTHQGLSSPVTKSFNRGEC
notes: Large chain: IL23A(1) VL - BAFF(1) VH - LGGGSG - IgG4-Pro-YTE; small chain: BAFF(1) VL - IL23A(1) VH - LGGGSG - CL

Assays:
[1] = molecular target: T1, Linked human IL-23 (Boehringer Ingelheim Pharmaceuticals, Inc.) (human, UniProt P29460 23-328); assay: SPR (ProteOn XPR36), compound captured on goat anti-human IgG Fc, antigen injected
T1 sequence 1: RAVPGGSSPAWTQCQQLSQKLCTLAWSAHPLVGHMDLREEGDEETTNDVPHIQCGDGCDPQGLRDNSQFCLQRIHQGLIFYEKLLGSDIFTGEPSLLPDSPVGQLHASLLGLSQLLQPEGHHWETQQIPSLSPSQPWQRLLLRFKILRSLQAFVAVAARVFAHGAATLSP
T1 sequence 2: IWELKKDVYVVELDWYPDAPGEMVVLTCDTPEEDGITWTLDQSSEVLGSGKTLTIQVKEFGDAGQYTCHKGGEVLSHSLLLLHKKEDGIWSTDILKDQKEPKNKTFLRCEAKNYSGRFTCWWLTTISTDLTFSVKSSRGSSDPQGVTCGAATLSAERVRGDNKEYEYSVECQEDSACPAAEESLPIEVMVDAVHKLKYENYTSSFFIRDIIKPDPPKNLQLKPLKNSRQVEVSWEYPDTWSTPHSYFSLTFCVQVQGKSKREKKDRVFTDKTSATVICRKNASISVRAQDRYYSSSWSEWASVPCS
Procedure: (§1) SPR experiments were performed on a ProteOn XPR36 instrument (Bio Rad). A GLM chip was preconditioned with sequential injections of 60 sec of 0.5% SDS, 50 mM NaOH, and 100 mM HCl at a flow rate of 30 μl/min both vertical and horizontal directions.
(§2) The preconditioned GLM chip was then activated by an injection of EDC (76.7 mg/ml) and sulfo-NHS (21.7 mg/ml) mixture with ratio of 1:1 in 6 horizontal channels. Goat-anti-human IgG (GAHA) Fc gamma (Invitrogen) at a concentration of 30 μg/ml in 10 mM, pH 5.0 sodium acetate buffer was immobilized to 8,000 resonance units on the activated GLM chip in 6 horizontal channels. The chip was finally deactivated with 1 M ethanolamine HCl in 6 horizontal channels. The prepared GAHA chip was rotated to vertical direction to capture test compounds, over 5 vertical channels and the last channel was used as a column reference. The captured chip was then rotated again to the horizontal direction for binding. […] The dissociation was allowed for 2 hour. The GAHA surface was regenerated using short pulse injection (18 seconds) of 0.85% phosphoric acid (Bio Rad) at a flow rate of 100 μl/min both horizontal and vertical directions after 10 min association and 2 hr dissociation. The regenerated GAHA was ready for another binding cycle.

[2] = molecular target: T2, cynomolgus BAFF (cynomolgus, UniProt A0A2K5V2X4 134-285); assay: as above
T2 construct: construct not described
Procedure: as §1, §2

[3] = molecular target: T3, cynomolgus IL-23 (cynomolgus, UniProt H6WS56 20-189); assay: as above
Procedure: as §1, §2

[4] = molecular target: T4, human BAFF (human, UniProt Q9Y275 134-285, limits assumed); assay: as above
T4 construct: also called hu BAFF; hBAFF
Procedure: as §1, §2

[5] = molecular target: T5, Recombinant human IL-23 (human, UniProt P29460 23-328); assay: BLI (Octet RED96, streptavidin tips), compound incubated 48 h at 37 C in whole blood vs kinetic buffer
T5 construct: also called hu IL23
T5 sequence 1: T1 sequence 1
T5 sequence 2: T1 sequence 2
Procedure: (§3) A whole blood interference assay was developed on an Octet RED96 to detect the effects of non-specific binding or off-target binding for compounds in the presence of whole blood (WB). The compound solutions in whole blood and 1× kinetic running buffer (1×kb) were incubated at a temperature of 37° C. for 48 hours. Kinetic measurements for the incubated compound samples were performed with an Octet RED96 equipped with streptavidin (SA) biosensor tips (ForteBio, Menlo Park, Calif.) at 27° C. The ratio of the on-rates/binding signals in buffer and whole blood were reported. A ratio <2 was considered to show no interference.

[6] = molecular target: T4, human BAFF; assay: as above
Procedure: as §3

[7] = molecular target: T5, Recombinant human IL-23; assay: cell-based or functional assay
[8] = molecular target: T3, cynomolgus IL-23; assay: cell-based or functional assay
[9] = molecular target: T5, Recombinant human IL-23; assay: cell-based or functional assay; remark: listed apart in the source
[10] = molecular target: Recombinant human BAFF 60mer (Boehringer Ingelheim Pharmaceuticals, Inc.) (human, UniProt Q9Y275 134-285, limits assumed); assay: cell-based or functional assay
[11] = molecular target: Recombinant human BAFF trimer (Boehringer Ingelheim Pharmaceuticals, Inc.) (human, UniProt Q9Y275 134-285, limits assumed); assay: cell-based or functional assay

Row | Binder | Kd [1] | Kd [2] | Kd [3] | Kd [4] | Ratio of binding signal in WB/kinetic buffer [5] | Ratio of binding signal in WB/kinetic buffer [6] | IC50, STAT3-luciferase reporter in DB lymphoblast B cells [7] | IC90, STAT3-luciferase reporter in DB lymphoblast B cells [7] | IC50, IL-23-induced mouse IL-17 release from mouse splenocytes [8] | IC90, IL-23-induced mouse IL-17 release from mouse splenocytes [8] | IC50, IL-23-induced mouse IL-17 release from mouse splenocytes [9] | IC90, IL-23-induced mouse IL-17 release from mouse splenocytes [9] | IC50, NFkB luciferase reporter, human BAFFR-CHO cells [10] | IC90, NFkB luciferase reporter, human BAFFR-CHO cells [10] | IC50, NFkB luciferase reporter, human BAFFR-CHO cells [11] | IC90, NFkB luciferase reporter, human BAFFR-CHO cells [11]
1 | B1 | < 0.015 nM | < 0.015 nM | < 0.015 nM | < 0.015 nM | 1.1 | 1 |  |  |  |  |  |  |  |  |  | 
2 | B2 | < 0.015 nM | < 0.015 nM | < 0.015 nM | < 0.015 nM | 1.3 | 1.1 | 0.189 nM | 2.33 nM | 0.11 nM | 0.88 nM | 0.133 nM | 0.761 nM | 0.006 nM | 0.014 nM | 0.035 nM | 0.11 nM
3 | B3 | < 0.015 nM | < 0.015 nM | < 0.015 nM | < 0.015 nM | 1.2 | 1 |  |  |  |  |  |  | 1.3 nM | 7.39 nM | 0.072 nM | 0.293 nM
